The target in the data set is HER2 extracellular domain (UniProt P04626 23-652). The experiment in a line: SPRi; 5 mM Mg2+; negative aptamer spots subtracted; Selection buffer: 10 mM HEPES, 120 mM NaCl, 5 mM MgCl2, 5 mM KCl; pH not stated; SPRi temperature not stated (50 uL/min, 50 or 100 nM HER2, BSA-blocked chip); cell assays at 37 C. Particulars: protein: commercial.

The molecule TCTAAAAGGATTCTTCCCAAGGGGATCCAATTCAAACAGC (ssDNA, 5' hexyl-disulfide) [HeA2_3] registered a Kd of 6.2 nM.
Molecule ATTAAGAACCATCACTCTTCCAAATGGATATACGACTGGG (ssDNA, 5' hexyl-disulfide) [HeA2_1] displayed a dissociation constant (Kd) of 28.9 nM.

In general, Kd refers to the free concentration of one partner at which half of the binding sites on the other are occupied at equilibrium, for simple one-to-one binding.

For the origin of these results see paper PMC4932547, “Improved Aptamers for the Diagnosis and Potential Treatment of HER2-Positive Cancer”.
